For two substances, reduction in GAS (WT M41) adherence to CAF-derived matrices after 30 min pre-incubation of the cells with rTnFn6-8, against untreated WT and reduction in GAS (WT M41) adherence to CAF-derived matrices after 30 min pre-incubation of the cells with rTnFn1-5, against untreated WT results are on record in article PMC6736723.

The assay has as its target Scl1.41 on the surface of M41-type GAS cells (MGAS6183 wild type and Δscl1::scl1.41) (Streptococcus pyogenes (group A Streptococcus), M41-type strain MGAS6183).

The substance “recombinant tenascin-C fibronectin type III repeats 6-8 (rTnFn6-8) (domain or fragment)” gave a reduction in GAS (WT M41) adherence to CAF-derived matrices after 30 min pre-incubation of the cells with rTnFn6-8, against untreated WT of 40%. In turn, “recombinant tenascin-C fibronectin type III repeats 1-5 (rTnFn1-5) (domain or fragment)” showed a reduction in GAS (WT M41) adherence to CAF-derived matrices after 30 min pre-incubation of the cells with rTnFn1-5, against untreated WT of 70%.
